This note sets out measurements from patent US20170240632A1, “COMPOSITIONS AND METHODS FOR IDENTIFYING AND TREATING CACHEXIA OR PRE-CACHEXIA” (THE BROAD INSTITUTE INC., priority 2014, published 2017).

The subject of the test is Primary human myoblast differentiated into terminal myotubes. In words: Cachexia induction by recombinant S100/HMGB1 proteins, myosin HC in-cell Western. The format is cell-based. Conditions: recombinant ligands in Hanks Balance Salt Solution applied 1:2 v:v to fresh maintenance media each day for 3 days. The method, then:
FIG. 1 is a graph showing the differential cachexia-inducing activity of r-S100 faimily proteins. All rpooteins are tested in HBSS buffer. Myosin HC is measured in an in-cell Western assay.
FIGS. 1-4 illustrate the effect of various proteins of the S100 family, as well as HMGB1, as cachexia inducers when conmpared with cachexia-inducing media. Primary human myoblast were plated and differentiated into terminal myotubes as previously described. Recombinant ligands were prepared at the same dose curve in Hanks Balance Salt Solution (buffer) and applied 1:2 v:v to fresh maintenance media each day for 3 days. Cells were assessed for myosin HC content by in-cell Western staining as previously described.

Entries after “also recorded” stand apart in the source; their conditions may differ.

B1: S100A9: recombinant S100 family protein, RAGE ligand (protein, listed as Homo sapiens)
chain: MTCKMSQLERNIETIINTFHQYSVKLGHPDTLNQGEFKELVRKDLQNFLKKENKNEKVIEHIMEDLDTNADKQLSFEEFIMLMARLTWASHEKMHEGDEGPGHHHKPGLGEGTP
With B1, the “induction of the cachectic phenotype (myosin HC content)” value (“induction of the cachectic phenotype” below) is given as “key effector molecules in inducing precachexia and/or cachexia”. The “induction of the cachectic phenotype” value (listed as A9) is on record as “inducers of the cachectic phenotype”.

B2: S100A8: recombinant S100 family protein, RAGE ligand (protein, listed as Homo sapiens)
chain: MLTELEKALNSIIDVYHKYSLIKGNFHAVYRDDLKKLLETECPQYIRKKGADVWFKELDINTDGAVNFQEFLILVIKMGVAAHKKSHEESHKE
As to B2, the “induction of the cachectic phenotype” value is “key effector molecules in inducing precachexia and/or cachexia”. For the same molecule, where the note is “listed as A8”, the “induction of the cachectic phenotype” value is listed as “inducers of the cachectic phenotype”.

B3: Calprotectin: homodimers, heterodimers and heterotetramers of S100A8 and S100A9 (protein, UniProt P05109 1-93; P06702 1-114, looked up)
Protein S100-A8: MLTELEKALNSIIDVYHKYSLIKGNFHAVYRDDLKKLLETECPQYIRKKGADVWFKELDINTDGAVNFQEFLILVIKMGVAAHKKSHEESHKE
Protein S100-A9: MTCKMSQLERNIETIINTFHQYSVKLGHPDTLNQGEFKELVRKDLQNFLKKENKNEKVIEHIMEDLDTNADKQLSFEEFIMLMARLTWASHEKMHEGDEGPGHHHKPGLGEGTP
Turning to B3, the “induction of the cachectic phenotype” value is given as “key effector molecules in inducing precachexia and/or cachexia”.

B4: S100B: recombinant S100 family protein, RAGE ligand (protein, listed as Homo sapiens)
chain: MSELEKAMVALIDVFHQYSGREGDKHKLKKSELKELINNELSHFLEEIKEQEVVDKVMETLDNDGDGECDFQEFMAFVAMVTTACHEFFEHE
With B4, the “induction of the cachectic phenotype” value is given as “little or no activity; also recorded: do not induce precachexia and/or cachexia”.

B5: HMGB1: high mobility group box 1, RAGE ligand (protein, UniProt P09429 1-215, looked up)
High mobility group protein B1: MGKGDPKKPRGKMSSYAFFVQTCREEHKKKHPDASVNFSEFSKKCSERWKTMSAKEKGKFEDMAKADKARYEREMKTYIPPKGETKKKFKDPNAPKRPPSAFFLFCSEYRPKIKGEHPGLSIGDVAKKLGEMWNNTAADDKQPYEKKAAKLKEKYEKDIAAYRAKGKPDAAKKGVVKAEKSKKKKEEEEDEEDEEDEEEEEDEEDEDEEEDDDDE
With B5, the “induction of the cachectic phenotype” value was “do not induce precachexia and/or cachexia; also recorded: not cachexogenic in muscle”.

B6: S100A7: recombinant S100 family protein, RAGE ligand (protein, listed as Homo sapiens)
chain: MSNTQAERSIIGMIDMFHKYTRRDDKIEKPSLLTMMKENFPNFLSACDKKGTNYLADVFEKKDKNEDKKIDFSEFLSLLGDIATDYHKQSHGAAPCSGGSQ
B6: the “induction of the cachectic phenotype” value is “key effector molecules in inducing precachexia and/or cachexia”. In addition, the “induction of the cachectic phenotype” value (listed as S100 A7) was “inducers of the cachectic phenotype”.
